Test results: paper PMC10786891, “Massively parallel profiling of RNA-targeting CRISPR-Cas13d”

T1: EsCas13d, nuclease-dead (Eubacterium siraeum, UniProt B0MS50, R295A;H300A;R849A;H854A)
T1 sequence: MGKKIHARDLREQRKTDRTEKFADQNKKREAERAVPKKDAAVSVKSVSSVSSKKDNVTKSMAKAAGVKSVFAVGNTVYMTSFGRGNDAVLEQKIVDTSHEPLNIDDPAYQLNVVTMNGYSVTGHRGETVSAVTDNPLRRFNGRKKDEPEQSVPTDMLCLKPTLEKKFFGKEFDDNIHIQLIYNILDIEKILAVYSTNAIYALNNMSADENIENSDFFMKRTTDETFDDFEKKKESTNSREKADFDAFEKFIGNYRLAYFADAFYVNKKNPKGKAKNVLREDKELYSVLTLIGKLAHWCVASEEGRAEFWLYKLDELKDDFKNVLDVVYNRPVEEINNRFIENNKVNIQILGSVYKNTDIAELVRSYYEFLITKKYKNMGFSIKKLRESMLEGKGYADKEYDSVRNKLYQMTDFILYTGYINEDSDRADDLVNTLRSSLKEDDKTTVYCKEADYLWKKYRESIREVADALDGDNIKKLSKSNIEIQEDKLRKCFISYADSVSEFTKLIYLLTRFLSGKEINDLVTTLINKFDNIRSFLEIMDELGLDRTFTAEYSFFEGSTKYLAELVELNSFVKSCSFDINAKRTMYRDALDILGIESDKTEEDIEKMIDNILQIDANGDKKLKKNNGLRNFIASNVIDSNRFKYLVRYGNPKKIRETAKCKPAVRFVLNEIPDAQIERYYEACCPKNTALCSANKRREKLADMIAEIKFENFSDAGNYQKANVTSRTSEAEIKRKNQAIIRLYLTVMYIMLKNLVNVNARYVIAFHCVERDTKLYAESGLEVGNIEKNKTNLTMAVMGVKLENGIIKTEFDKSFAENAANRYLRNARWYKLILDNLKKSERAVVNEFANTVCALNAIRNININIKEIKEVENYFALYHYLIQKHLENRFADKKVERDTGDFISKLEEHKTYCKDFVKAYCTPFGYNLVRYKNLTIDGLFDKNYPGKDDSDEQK


These binders were tested against T1, EsCas13d, nuclease-dead (assay: crRNA (strand 1, pre-loaded); Mg2+; 40 mM Tris-HCl pH 7.5, 150 mM NaCl, 6 mM MgCl2, 1 mM DTT, 0.1% Tween-20, 0.2 mg/ml BSA; 25 C; 10 min per concentration, then washed). Conditions: tags: His6-TwinStrep-SUMO cleaved; N-terminal SNAP kept (SNAP-Surface 488); label: 3' end held by stalled T7 RNA polymerase.

Binder	Kd
target 3 G19U (mixed) RNA 1: CACCCGUGCAAAAUUGCAGGGGUCUAAAACGACCUGAAUAUUUCAGAUCAAA RNA 2: GGGAAUGGAUCCACAUCUACGAAUUCGUUUUUUAUCUGAAAUAUUCAGGUCUGCAGAUCGGAAGAGCACACGU	83 ± 9.5 nM
target 1 insG 3' of 21,insU 3' of 1 (mixed) RNA 1: CACCCGUGCAAAAAUGCAGGGGUCUAAAACUGAGCGGAUAACCUCUCUAUGG RNA 2: GGGAAUGGAUCCACAUCUACGAAUUCGUACCGAUAGAGAGGUUAUCCGCUCAUCCGAGAUCGGAAGAGCACACGU	71 ± 12 nM
target 3 insU 3' of 6,insA 3' of 6 (mixed) RNA 1: CACCCGUGCAAAAUUGCAGGGGUCUAAAACGACCUGAAUAUUUCAGAUCAAA RNA 2: GGGAAUGGAUCCACAUCUACGAAUUCGUUUUUGAUCUGAAAUAUUCUAAGGUCUGCAGAUCGGAAGAGCACACGU	8.69 ± 0.57 nM
target 3 A11G,A12G (mixed) RNA 1: CACCCGUGCAAAAUUGCAGGGGUCUAAAACGACCUGAAUAUUUCAGAUCAAA RNA 2: GGGAAUGGAUCCACAUCUACGAAUUCGUUUUUGAUCUGAGGUAUUCAGGUCUGCAGAUCGGAAGAGCACACGU	73 ± 29.5 nM
target 3 G3A,C6G (mixed) RNA 1: CACCCGUGCAAAAUUGCAGGGGUCUAAAACGACCUGAAUAUUUCAGAUCAAA RNA 2: GGGAAUGGAUCCACAUCUACGAAUUCGUUUUUGAUCUGAAAUAUUGAGAUCUGCAGAUCGGAAGAGCACACGU	46.5 ± 7 nM
target 3 G3A,A18G (mixed) RNA 1: CACCCGUGCAAAAUUGCAGGGGUCUAAAACGACCUGAAUAUUUCAGAUCAAA RNA 2: GGGAAUGGAUCCACAUCUACGAAUUCGUUUUUGGUCUGAAAUAUUCAGAUCUGCAGAUCGGAAGAGCACACGU	55 ± 13 nM
target 3 C6U,A11G (mixed) RNA 1: CACCCGUGCAAAAUUGCAGGGGUCUAAAACGACCUGAAUAUUUCAGAUCAAA RNA 2: GGGAAUGGAUCCACAUCUACGAAUUCGUUUUUGAUCUGAAGUAUUUAGGUCUGCAGAUCGGAAGAGCACACGU	47 ± 10.5 nM
target 3 insG 3' of 2,insA 3' of 2 (mixed) RNA 1: CACCCGUGCAAAAUUGCAGGGGUCUAAAACGACCUGAAUAUUUCAGAUCAAA RNA 2: GGGAAUGGAUCCACAUCUACGAAUUCGUUUUUGAUCUGAAAUAUUCAGGUGACUGCAGAUCGGAAGAGCACACGU	20.3 ± 2.6 nM
target 3 G4C,U7G (mixed) RNA 1: CACCCGUGCAAAAUUGCAGGGGUCUAAAACGACCUGAAUAUUUCAGAUCAAA RNA 2: GGGAAUGGAUCCACAUCUACGAAUUCGUUUUUGAUCUGAAAUAUGCACGUCUGCAGAUCGGAAGAGCACACGU	44.1 ± 4.1 nM
target 3 C1G,A9C (mixed) RNA 1: CACCCGUGCAAAAUUGCAGGGGUCUAAAACGACCUGAAUAUUUCAGAUCAAA RNA 2: GGGAAUGGAUCCACAUCUACGAAUUCGUUUUUGAUCUGAAAUCUUCAGGUGUGCAGAUCGGAAGAGCACACGU	54 ± 18 nM
target 3 U2G,U7C (mixed) RNA 1: CACCCGUGCAAAAUUGCAGGGGUCUAAAACGACCUGAAUAUUUCAGAUCAAA RNA 2: GGGAAUGGAUCCACAUCUACGAAUUCGUUUUUGAUCUGAAAUAUCCAGGGCUGCAGAUCGGAAGAGCACACGU	28 ± 4.5 nM
target 1 U11G,A14G (mixed) RNA 1: CACCCGUGCAAAAAUGCAGGGGUCUAAAACUGAGCGGAUAACCUCUCUAUGG RNA 2: GGGAAUGGAUCCACAUCUACGAAUUCGUACCAUAGAGGGGGUAUCCGCUCACCGAGAUCGGAAGAGCACACGU	22.1 ± 1.3 nM
target 3 A5C,C6G (mixed) RNA 1: CACCCGUGCAAAAUUGCAGGGGUCUAAAACGACCUGAAUAUUUCAGAUCAAA RNA 2: GGGAAUGGAUCCACAUCUACGAAUUCGUUUUUGAUCUGAAAUAUUGCGGUCUGCAGAUCGGAAGAGCACACGU	53.5 ± 5.5 nM
target 3 G4A,U7C (mixed) RNA 1: CACCCGUGCAAAAUUGCAGGGGUCUAAAACGACCUGAAUAUUUCAGAUCAAA RNA 2: GGGAAUGGAUCCACAUCUACGAAUUCGUUUUUGAUCUGAAAUAUCCAAGUCUGCAGAUCGGAAGAGCACACGU	71 ± 12.5 nM
target 3 U2C,U22A (mixed) RNA 1: CACCCGUGCAAAAUUGCAGGGGUCUAAAACGACCUGAAUAUUUCAGAUCAAA RNA 2: GGGAAUGGAUCCACAUCUACGAAUUCGUUAUUGAUCUGAAAUAUUCAGGCCUGCAGAUCGGAAGAGCACACGU	77.5 ± 14 nM
target 3 insC 3' of 11,insA 3' of 2 (mixed) RNA 1: CACCCGUGCAAAAUUGCAGGGGUCUAAAACGACCUGAAUAUUUCAGAUCAAA RNA 2: GGGAAUGGAUCCACAUCUACGAAUUCGUUUUUGAUCUGAAACUAUUCAGGUACUGCAGAUCGGAAGAGCACACGU	45.5 ± 11.5 nM
target 3 insU 3' of 22,insC 3' of 4 (mixed) RNA 1: CACCCGUGCAAAAUUGCAGGGGUCUAAAACGACCUGAAUAUUUCAGAUCAAA RNA 2: GGGAAUGGAUCCACAUCUACGAAUUCGUUUUUUGAUCUGAAAUAUUCAGCGUCUGCAGAUCGGAAGAGCACACGU	19.5 ± 4.5 nM
target 3 A13G,A18G (mixed) RNA 1: CACCCGUGCAAAAUUGCAGGGGUCUAAAACGACCUGAAUAUUUCAGAUCAAA RNA 2: GGGAAUGGAUCCACAUCUACGAAUUCGUUUUUGGUCUGGAAUAUUCAGGUCUGCAGAUCGGAAGAGCACACGU	~100 nM
target 3 complement block 5-9 (mixed) RNA 1: CACCCGUGCAAAAUUGCAGGGGUCUAAAACGACCUGAAUAUUUCAGAUCAAA RNA 2: GGGAAUGGAUCCACAUCUACGAAUUCGUUUUUGAUCUGAAAUUAAGUGGUCUGCAGAUCGGAAGAGCACACGU	90 ± 9.5 nM
target 3 insA 3' of 8 (mixed) RNA 1: CACCCGUGCAAAAUUGCAGGGGUCUAAAACGACCUGAAUAUUUCAGAUCAAA RNA 2: GGGAAUGGAUCCACAUCUACGAAUUCGUUUUUGAUCUGAAAUAUAUCAGGUCUGCAGAUCGGAAGAGCACACGU	50.5 ± 10 nM
target 3 insU 3' of 11 (mixed) RNA 1: CACCCGUGCAAAAUUGCAGGGGUCUAAAACGACCUGAAUAUUUCAGAUCAAA RNA 2: GGGAAUGGAUCCACAUCUACGAAUUCGUUUUUGAUCUGAAAUUAUUCAGGUCUGCAGAUCGGAAGAGCACACGU	81 ± 31 nM
target 1 insC 3' of 8,insU 3' of 7 (mixed) RNA 1: CACCCGUGCAAAAAUGCAGGGGUCUAAAACUGAGCGGAUAACCUCUCUAUGG RNA 2: GGGAAUGGAUCCACAUCUACGAAUUCGUACCAUAGAGAGGUUAUCCUCGCUCACCGAGAUCGGAAGAGCACACGU	13.6 ± 1.1 nM
target 1 U3A,C6U (mixed) RNA 1: CACCCGUGCAAAAAUGCAGGGGUCUAAAACUGAGCGGAUAACCUCUCUAUGG RNA 2: GGGAAUGGAUCCACAUCUACGAAUUCGUACCAUAGAGAGGUUAUCUGCACACCGAGAUCGGAAGAGCACACGU	5.27 ± 0.27 nM
target 3 U2A,U21A (mixed) RNA 1: CACCCGUGCAAAAUUGCAGGGGUCUAAAACGACCUGAAUAUUUCAGAUCAAA RNA 2: GGGAAUGGAUCCACAUCUACGAAUUCGUUUAUGAUCUGAAAUAUUCAGGACUGCAGAUCGGAAGAGCACACGU	39.5 ± 6 nM
target 3 insG 3' of 5,insC 3' of 3 (mixed) RNA 1: CACCCGUGCAAAAUUGCAGGGGUCUAAAACGACCUGAAUAUUUCAGAUCAAA RNA 2: GGGAAUGGAUCCACAUCUACGAAUUCGUUUUUGAUCUGAAAUAUUCAGGGCUCUGCAGAUCGGAAGAGCACACGU	76 ± 12.5 nM
target 3 G3U,U7G (mixed) RNA 1: CACCCGUGCAAAAUUGCAGGGGUCUAAAACGACCUGAAUAUUUCAGAUCAAA RNA 2: GGGAAUGGAUCCACAUCUACGAAUUCGUUUUUGAUCUGAAAUAUGCAGUUCUGCAGAUCGGAAGAGCACACGU	33.1 ± 4.2 nM
target 3 insG 3' of 5,insU 3' of 4 (mixed) RNA 1: CACCCGUGCAAAAUUGCAGGGGUCUAAAACGACCUGAAUAUUUCAGAUCAAA RNA 2: GGGAAUGGAUCCACAUCUACGAAUUCGUUUUUGAUCUGAAAUAUUCAGGUGUCUGCAGAUCGGAAGAGCACACGU	20.4 ± 1.8 nM
target 3 A11C,G14U (mixed) RNA 1: CACCCGUGCAAAAUUGCAGGGGUCUAAAACGACCUGAAUAUUUCAGAUCAAA RNA 2: GGGAAUGGAUCCACAUCUACGAAUUCGUUUUUGAUCUUAACUAUUCAGGUCUGCAGAUCGGAAGAGCACACGU	56.5 ± 27 nM
